Reference: paper PMC5909925 (Molecular Biology of the Cell, 2018)

Assays:
[1] = biological target: T1, full-length mouse His6-αE-catenin (WT) (mouse, UniProt P26231 1-906); assay: BLI
T1 sequence (looked up): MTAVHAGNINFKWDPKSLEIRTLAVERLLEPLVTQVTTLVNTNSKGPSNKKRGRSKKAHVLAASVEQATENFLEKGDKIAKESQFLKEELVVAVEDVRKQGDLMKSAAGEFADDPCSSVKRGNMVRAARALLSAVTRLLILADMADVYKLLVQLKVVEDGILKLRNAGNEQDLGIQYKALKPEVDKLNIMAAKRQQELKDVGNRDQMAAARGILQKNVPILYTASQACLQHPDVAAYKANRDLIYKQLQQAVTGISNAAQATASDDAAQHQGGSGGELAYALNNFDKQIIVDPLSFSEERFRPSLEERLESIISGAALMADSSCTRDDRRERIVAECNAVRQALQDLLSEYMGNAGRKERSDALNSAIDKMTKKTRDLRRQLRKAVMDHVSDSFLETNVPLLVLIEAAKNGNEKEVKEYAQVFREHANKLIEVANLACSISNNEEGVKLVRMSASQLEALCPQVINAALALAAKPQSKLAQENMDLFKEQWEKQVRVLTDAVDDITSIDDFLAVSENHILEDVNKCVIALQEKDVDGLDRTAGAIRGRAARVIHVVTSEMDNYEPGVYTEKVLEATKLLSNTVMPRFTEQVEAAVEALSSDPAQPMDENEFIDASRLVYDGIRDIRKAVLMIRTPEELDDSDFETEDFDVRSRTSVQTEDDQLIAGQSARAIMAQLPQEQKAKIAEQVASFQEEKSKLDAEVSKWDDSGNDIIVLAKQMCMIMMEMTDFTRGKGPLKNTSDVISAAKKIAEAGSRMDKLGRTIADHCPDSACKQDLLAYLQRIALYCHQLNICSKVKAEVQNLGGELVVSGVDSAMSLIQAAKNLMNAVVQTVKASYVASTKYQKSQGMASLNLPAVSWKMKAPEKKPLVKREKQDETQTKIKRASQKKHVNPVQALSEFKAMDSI

[2] = biological target: T2, full-length mouse His6-αE-catenin R551A (mouse, UniProt P26231 1-906, R551A); assay: BLI
T2 sequence (looked up): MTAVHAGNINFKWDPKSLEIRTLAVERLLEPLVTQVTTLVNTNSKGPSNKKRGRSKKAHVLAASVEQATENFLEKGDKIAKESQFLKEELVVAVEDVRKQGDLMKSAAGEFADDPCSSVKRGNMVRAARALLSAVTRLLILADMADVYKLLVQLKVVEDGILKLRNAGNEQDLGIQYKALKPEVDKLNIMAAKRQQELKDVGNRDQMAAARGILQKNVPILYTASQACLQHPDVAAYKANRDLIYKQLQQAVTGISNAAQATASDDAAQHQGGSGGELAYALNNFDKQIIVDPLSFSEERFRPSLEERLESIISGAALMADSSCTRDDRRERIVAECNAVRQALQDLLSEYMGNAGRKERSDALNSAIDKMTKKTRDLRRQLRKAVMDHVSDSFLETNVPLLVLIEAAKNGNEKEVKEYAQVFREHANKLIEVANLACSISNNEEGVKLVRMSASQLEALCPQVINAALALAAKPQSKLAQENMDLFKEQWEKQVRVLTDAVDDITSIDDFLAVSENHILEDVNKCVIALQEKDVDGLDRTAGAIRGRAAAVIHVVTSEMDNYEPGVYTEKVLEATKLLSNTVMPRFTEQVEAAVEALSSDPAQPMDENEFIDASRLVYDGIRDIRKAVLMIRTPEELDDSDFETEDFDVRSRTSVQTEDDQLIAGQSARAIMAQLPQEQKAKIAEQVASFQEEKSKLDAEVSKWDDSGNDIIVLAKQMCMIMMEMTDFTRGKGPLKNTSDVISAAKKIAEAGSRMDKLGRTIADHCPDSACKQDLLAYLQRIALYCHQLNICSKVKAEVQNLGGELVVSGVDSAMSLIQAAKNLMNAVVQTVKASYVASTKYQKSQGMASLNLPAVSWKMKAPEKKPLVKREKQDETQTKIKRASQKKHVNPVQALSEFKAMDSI

Kd [1]: 1800 nM
Kd [2]: 140 nM
B1: constitutively active vinculin head domain (VHD, residues 1-252) (domain or fragment, human, UniProt P18206 1-252, looked up)
chain: MPVFHTRTIESILEPVAQQISHLVIMHEEGEVDGKAIPDLTAPVAAVQAAVSNLVRVGKETVQTTEDQILKRDMPPAFIKVENACTKLVQAAQMLQSDPYSVPARDYLIDGSRGILSGTSDLLLTFDEAEVRKIIRVCKGILEYLTVAEVVETMEDLVTYTKNLGPGMTKMAKMIDERQQELTHQEHRVMLVNSMNTVKELLPVLISAMKIFVTTKNSKNQGIEEALKNRNFTVEKMSAEINEIIRVLQLTS
